From publication PMC2572732, “Structural Coupling of SH2-Kinase Domains Links Fes and Abl Substrate Recognition and Kinase Activation” (Cell, 2008)
Positions count from the first letter of the chain named. In names and notes the source's numbering stands.

B1: EE/KK: Fes double mutant, E469 and E472 to lysine (protein)
chain: WYHGAIPRAKVAKLLVHSGDFLVRESQGKQEYVLSVLWDGLPRHFIIQSLDNLYRLEGEGFPSIPLLIDHLLSTQQPLTKKSGVVLHRAV
B2: WT: Wild-type full-length human Fes with N-terminal Flag epitope (protein, UniProt P07332 1-822, looked up)
chain: MGFSSELCSPQGHGVLQQMQEAELRLLEGMRKWMAQRVKSDREYAGLLHHMSLQDSGGQSRAISPDSPISQSWAEITSQTEGLSRLLRQHAEDLNSGPLSKLSLLIRERQQLRKTYSEQWQQLQQELTKTHSQDIEKLKSQYRALARDSAQAKRKYQEASKDKDRDKAKDKYVRSLWKLFAHHNRYVLGVRAAQLHHQHHHQLLLPGLLRSLQDLHEEMACILKEILQEYLEISSLVQDEVVAIHREMAAAAARIQPEAEYQGFLRQYGSAPDVPPCVTFDESLLEEGEPLEPGELQLNELTVESVQHTLTSVTDELAVATEMVFRRQEMVTQLQQELRNEEENTHPRERVQLLGKRQVLQEALQGLQVALCSQAKLQAQQELLQTKLEHLGPGEPPPVLLLQDDRHSTSSSEQEREGGRTPTLEILKSHISGIFRPKFSLPPPLQLIPEVQKPLHEQLWYHGAIPRAEVAELLVHSGDFLVRESQGKQEYVLSVLWDGLPRHFIIQSLDNLYRLEGEGFPSIPLLIDHLLSTQQPLTKKSGVVLHRAVPKDKWVLNHEDLVLGEQIGRGNFGEVFSGRLRADNTLVAVKSCRETLPPDLKAKFLQEARILKQYSHPNIVRLIGVCTQKQPIYIVMELVQGGDFLTFLRTEGARLRVKTLLQMVGDAAAGMEYLESKCCIHRDLAARNCLVTEKNVLKISDFGMSREEADGVYAASGGLRQVPVKWTAPEALNYGRYSSESDVWSFGILLWETFSLGASPYPNLSNQQTREFVEKGGRLPCPELCPDAVFRLMEQCWAYEPGQRPSFSTIYQELQSIRKRHR
modifications: full-length N-terminal Flag tag
B3: E469K: Fes E469K mutant (protein, UniProt P07332 1-822, looked up, variant E469K)
Tyrosine-protein kinase …: B2 chain with E469K
B4: G/V: Fes mutant, conserved glycine residue (G463) mutated to valine (protein, UniProt P07332 1-822, looked up, variant G463V)
Tyrosine-protein kinase …: B2 chain with G463V
B5: EER/KKE: Fes triple mutant: EE/KK plus R609 in αC helix to glutamate (protein, UniProt P07332 1-822, looked up, variant E469K E472K R609E)
Tyrosine-protein kinase …: B2 chain with E469K, E472K, R609E
B6: R/M: Fes with R483 in the SH2 pTyr-binding pocket substituted with methionine (protein, UniProt P07332 1-822, looked up, variant R483M)
Tyrosine-protein kinase …: B2 chain with R483M
B7: E472K: Fes E472K mutant (protein, UniProt P07332 1-822, looked up, variant E472K)
Tyrosine-protein kinase …: B2 chain with E472K

System: Fes; GST-cortactin (residues 382–550)
Assay: In vivo kinase assay: Fes autophosphorylation and GST-cortactin phosphorylation in transfected HEK293T cells
Type: cell-based, human
Settings: in words; for Fes kinase activity (autophosphorylation and cortactin phosphorylation): full-length Flag-Fes, HEK293T, 24 hr, western blot anti-pTyr
From the text: To pursue the relevance of the observed interdomain interactions, we studied the effects of mutating residues in the SH2-kinase interface on human Fes activity. To this end, we monitored Fes autophosphorylation and transphosphorylation activity in transfected cells, using cortactin (residues 382–550) fused to GST as an exogenous substrate (Figures 2A and 2B). In an effort to perturb the close interaction between the SH2 and kinase domains, we mutated the conserved glycine residue (G463) located in the tightly packed interface between the SH2 N terminus and the kinase β4/β5 loop to valine (mutant G/V). Introducing this bulky side chain would be expected to sterically hinder alignment of the SH2 and kinase domains, resulting in an altered domain packing. Wild-type (WT) and G/V mutant full-length human Fes, each with an N-terminal Flag epitope, were expressed in HEK293T cells together with GST-cortactin.
Wild-type p130^Gag-Fps and the RX15m and AX9m mutants ([Stone et al., 1984]) were subcloned into the vector pRK5-myc ([Winberg et al., 2000]). Full-length human Fes was cloned into the vector pCMV7.1-3xFlag (Sigma, St. Louis, MO). Site-directed mutagenesis was performed using the QuickChange® II XL Kit (Stratagene, La Jolla, CA) following the manufacturer's directions. A GST-tagged C-terminal fragment of human cortactin (residues 382–550, accession Q14247) was prepared by PCR from cDNA (accession BC008799) and cloned into pEBG vector (gift from C. Duckett, University of Michigan Medical School, Ann Arbor).
HEK293T cells were maintained in Dulbecco's modified Eagle's medium supplemented with 10% (vol/vol) fetal bovine serum, 100 units/ml penicillin G sodium, and 100 μg/ml streptomycin and incubated at 37°C, 5% CO2.
Flag-tagged Fes or Myc-tagged p130^Gag-Fps and mutants thereof were cotransfected with GST-cortactin into HEK293T cells. After 24 hr, cells were lysed with NP-40 cell lysis buffer (50 mM Tris-HCl [pH 7.5], 150 mM NaCl, 1% NP-40, and 1 mM EDTA) that contained 1 mM phenylmethylsulfonyl fluoride, 10 μg/ml leupeptin, 10 μg/ml aprotinin, and 10 μg/ml pepstatin A. Cell lysates, normalized for protein concentration, were used in anti-Flag M2 antibody-agarose (Sigma) or anti-Myc antibody immunoprecipitations or glutathione sepharose affinity precipitations. Associated proteins were resolved using SDS-PAGE and analyzed by western blotting using anti-Flag M2 (Sigma), anti-c-Myc 9E10 (Santa Cruz), HRP-conjugated anti-GST (Santa Cruz), or anti-pTyr 4G10 (Upstate) antibodies.

| Molecule | Fes kinase activity (autophosphorylation and cortactin phosphorylation) | Fes autophosphorylation (Flag-Fes, HEK293T cells, anti-pTyr western blot) | transphosphorylation of cortactin (GST-cortactin, HEK293T cells, anti-pTyr western blot) |
| --- | --- | --- | --- |
| B1 | strongly reduced Fes kinase activity | – | – |
| B2 | active | – | – |
| B3 | reduced tyrosine kinase activity | – | – |
| B4 | completely inactive | – | – |
| B5 | regained kinase activity to a level approaching wild-type | – | – |
| B6 | – | failed to autophosphorylate | significantly reduced ability to transphosphorylate cortactin |
| B7 | not significantly impaired | – | – |
